Source: patent US20180064809A1 (University of Texas, published 2018)
Values belong to the molecule of their own block, whether it stands above or below them.

Assays:
[1] = target: syndecan-4 (SD-4) on mouse T cells (mouse) (UniProt O35988); experiment: cell-based or functional assay
Human DC-HIL = target: T1, Human DC-HIL (human, UniProt Q14956 23-572); experiment: cell-based or functional assay
T1 sequence (looked up): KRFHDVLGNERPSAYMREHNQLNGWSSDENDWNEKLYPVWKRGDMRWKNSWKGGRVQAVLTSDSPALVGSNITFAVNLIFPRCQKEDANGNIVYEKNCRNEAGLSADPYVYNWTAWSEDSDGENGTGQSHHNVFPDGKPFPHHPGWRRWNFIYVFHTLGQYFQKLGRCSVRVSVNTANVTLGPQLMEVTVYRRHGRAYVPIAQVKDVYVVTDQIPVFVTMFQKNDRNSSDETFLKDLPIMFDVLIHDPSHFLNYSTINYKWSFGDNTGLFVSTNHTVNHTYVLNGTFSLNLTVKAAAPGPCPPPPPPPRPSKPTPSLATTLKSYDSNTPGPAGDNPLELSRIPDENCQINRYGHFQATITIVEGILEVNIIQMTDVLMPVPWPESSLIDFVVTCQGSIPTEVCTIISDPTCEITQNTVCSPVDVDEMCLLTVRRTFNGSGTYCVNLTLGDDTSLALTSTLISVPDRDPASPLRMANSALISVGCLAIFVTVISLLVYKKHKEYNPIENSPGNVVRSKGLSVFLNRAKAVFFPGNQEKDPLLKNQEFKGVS

syndecan-4 (SD-4) on mouse T cells (mouse), sequence (O35988 24-198): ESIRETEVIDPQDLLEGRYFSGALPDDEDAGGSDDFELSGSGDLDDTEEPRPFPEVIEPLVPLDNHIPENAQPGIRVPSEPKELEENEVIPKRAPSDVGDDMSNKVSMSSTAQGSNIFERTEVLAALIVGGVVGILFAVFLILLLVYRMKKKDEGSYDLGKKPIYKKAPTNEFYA

restoration of pmel-1 T cell activation suppressed by melanoma-MDSC [1]: < 90%
Molecule: DC-HIL-Fc fusion protein (from UniProt Q99P91 23-502)

T cell IFN-γ response against control IgG-treated cultures, kidney cancer (Human DC-HIL): 20 fold greater than control IgG-treated cultures
B1: 3D5 mouse anti-human DC-HIL mAb (antibody, IgG1, V domains shown)
VH: QVQLQQSGAELVKPGTSVKLSCKASGYTFTNYYMYWVKQRPGQGLEWIGEINTRNGGNRFNEKFKNKAILTVDKSSNTAYIQVSSLTSEDSAVYYCTTGFAYWGQGTLVTVSA
VL: QIVLTQSPAIMSASLGEEITLTCSASSSISYMHWYQQKSGTSPKLLIYTTSTLSSGVPSRFSGSGSGTFYSLTISSVEAEDAADYYCHQSSSYPYTFGGGTKLEIKR
